Results on three molecules are retold here after US20200262920A1 (AMPHIVENA THERAPEUTICS, published 2020).

Assay [1] deals with T1, human CD33 (human, UniProt P20138 18-364). Description: cell-based or functional assay.
The target of assay [2] is T1, human CD33. Kind of assay: cell-based or functional assay. This is another data set of the same source.
Assay [3] concerns the target T2, human CD3 (human, UniProt P07766 23-207; P09693 23-182; P04234 22-171; P20963 22-164). Kind of assay: cell-based or functional assay.
The target of assay [4] is T1, human CD33. Kind of assay: flow cytometry, HL-60 cells.
Assay [5] concerns the target T2, human CD3. Kind of assay: flow cytometry, human T-cells.
Assay [6] deals with T1, human CD33. Description: flow cytometry titration, KG-1 cells. In a few lines: (§1)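 Cells titrated with CD33/CD3 2×2 T-cell engagers, detected via anti-His then FITC anti-mouse IgG on ice, with PI exclusion of dead cells. Background-subtracted mean fluorescence fit to one-site binding for KD; cross-reactivity ratio from KDs on CHO cells expressing recombinant cynomolgus or human CD33.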

Assay [7] deals with T1, human CD33. Description: flow cytometry titration, HL-60 cells. The procedure, abridged:
as §1

Assay [8] has as its target T1, human CD33. Description: flow cytometry titration, U-937 cells. In a few lines: as §1
Assay [9] addresses T2, human CD3. Description: flow cytometry titration, T cells (human CD3+).
For assay [10], the target named is T3, cynomolgus CD33 (cynomolgus, UniProt A0A7N9ICR5 17-359).
T3 construct: whole, on cells; also called cynoCD33; cyno CD33
Kind of assay: ratio of KD by flow cytometry on CHO cells expressing cynomolgus CD33 vs human CD33. On the procedure:
Cells were incubated with 100 μL of serial dilutions of CD33/CD3 2×2 T-cell engagers. After washing three times with FACS buffer the cells were incubated with 0.1 mL of 10 μg/mL mouse monoclonal anti-His antibody in the same buffer for 45 min on ice. After a second washing cycle, the cells were incubated with 0.1 mL of 15 μg/mL FITC-conjugated goat anti-mouse IgG antibodies under the same conditions as before. As a control, cells were incubated with the anti-His IgG followed by the FITC-conjugated goat anti-mouse IgG antibodies without anti-CD33 2×2 T-cell engagers. The cells were then washed again and resuspended in 0.2 mL of FACS buffer containing 2 μg/mL propidium iodide (PI) in order to exclude dead cells. The fluorescence of 1×10⁴ living cells was measured using a Beckman-Coulter FC500 MPL flow cytometer using the MXP software (Beckman-Coulter, Krefeld, Germany) or a Millipore Guava EasyCyte flow cytometer using the Incyte software (Merck Millipore, Schwalbach, Germany). Mean fluorescence intensities of the cell samples were calculated using CXP software (Beckman-Coulter, Krefeld, Germany) or Incyte software (Merck Millipore, Schwalbach, Germany). After subtracting the fluorescence intensity values of the cells stained with the secondary and tertiary reagents alone the values were used for calculation of the KD values with the equation for one-site binding (hyperbola) of the GraphPad Prism (version 6.00 for Windows, GraphPad Software, La Jolla Calif. USA).
CD3 binding affinity and crossreactivity were evaluated in titration and flow cytometric experiments on CD3⁺ Jurkat cells (provided by Dr. Moldenhauer, DKFZ Heidelberg; human acute T-cell leukemia) and the cynomolgus CD3⁺ HSC-F cell line (JCRB, cat.:JCRB 1164). […] The KD ratio of crossreactivity was calculated using the KD values determined on the CHO cell lines expressing either recombinant human or recombinant cynomolgus antigens.

Assay [11] has as its target T1, human CD33. Kind of assay: cell-based or functional assay. The source holds these as a separate data set.
Assay [12] addresses T1, human CD33. Kind of assay: cell-based or functional assay. This is another data set of the same source.
The target in assay [13] is T1, human CD33. Description: cell-based or functional assay. This is another data set of the same source.

Values joined by “and” are separate entries in the source; they are usually repeats but may differ in a detail not shown here. Equal entries are not always repeated.

T1 sequence (P20138 18-364): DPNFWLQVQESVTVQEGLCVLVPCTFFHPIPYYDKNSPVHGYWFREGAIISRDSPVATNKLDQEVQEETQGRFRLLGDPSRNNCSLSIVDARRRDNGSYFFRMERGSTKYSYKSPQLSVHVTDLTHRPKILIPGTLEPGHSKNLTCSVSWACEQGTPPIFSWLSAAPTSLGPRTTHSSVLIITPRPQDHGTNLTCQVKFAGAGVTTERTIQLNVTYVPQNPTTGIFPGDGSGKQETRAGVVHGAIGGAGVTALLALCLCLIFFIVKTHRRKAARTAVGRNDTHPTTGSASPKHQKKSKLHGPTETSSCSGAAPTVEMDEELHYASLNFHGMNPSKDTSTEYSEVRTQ
T2 sequence (P07766 23-207, chain 1 of 4): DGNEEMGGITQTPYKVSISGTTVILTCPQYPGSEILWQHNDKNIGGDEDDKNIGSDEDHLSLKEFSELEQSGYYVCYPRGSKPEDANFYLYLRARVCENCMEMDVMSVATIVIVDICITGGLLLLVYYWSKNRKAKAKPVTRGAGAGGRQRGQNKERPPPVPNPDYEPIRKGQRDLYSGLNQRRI
T2 sequence (P09693 23-182, chain 2 of 4): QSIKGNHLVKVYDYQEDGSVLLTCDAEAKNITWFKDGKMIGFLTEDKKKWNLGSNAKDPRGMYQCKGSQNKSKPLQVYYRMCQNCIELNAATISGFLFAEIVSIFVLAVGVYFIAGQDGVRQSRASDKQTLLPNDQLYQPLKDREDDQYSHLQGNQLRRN
T2 sequence (P04234 22-171, chain 3 of 4): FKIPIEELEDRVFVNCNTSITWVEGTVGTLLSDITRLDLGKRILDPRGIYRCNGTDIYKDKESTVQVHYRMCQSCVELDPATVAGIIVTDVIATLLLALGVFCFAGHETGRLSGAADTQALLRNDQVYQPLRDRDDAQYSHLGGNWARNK
T2 sequence (P20963 22-164, chain 4 of 4): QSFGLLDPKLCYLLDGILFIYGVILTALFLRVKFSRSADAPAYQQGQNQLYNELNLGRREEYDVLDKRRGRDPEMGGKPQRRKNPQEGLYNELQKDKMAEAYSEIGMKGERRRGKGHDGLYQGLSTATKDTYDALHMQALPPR

B1: CD33/CD3 2×2 T-cell engager 19 (bispecific antibody)
chain: DIQMTQSPSSLSASVGDRVTITCRSSTGAVTTSNYANWVQQKPGKAPKALIGGTNKRAPGVPSRFSGSLIGDKATLTISSLQPEDFATYYCALWYSNLWVFGQGTKVEIKGGSGGSQVQLVQSGAEVKKPGASVKVSCKASGYTFTSYYMHWVRQAPGQGLEWMGIINPSGGSTSYAQKFQGRVTMTRDTSTSTVYMELSSLRSEDTAVYYCARDVVPAAIDYYGMDVWGQGTTVTVSSGGSGQSVLTQPPSASGTPGQRVTISCSGSSSNIGSNTVNWYQQLPGTAPKLLIYSDNQRPSGVPDRFSGSKSGSSASLAISGLQSDDEADYYCATWDDSLNGAVFGGGTKLTVLGGSGGSEVQLVESGGGLVQPGGSLRLSCAASGFTFSTYAMNWVRQAPGKGLEWVGRIRSKYNNYATYYADSVKDRFTISRDDSKNSLYLQMNSLKTEDTAVYYCARHGNFGNSYVSYFAYWGQGTLVTVSSAAAGSHHHHHH
notes: Non-covalent homodimer
Consider B1, for which, in [1], the “IC50, lysis of KG-1 cells with human T cells” value (“IC50 … with human T cells” for short) is roughly 5 pM. Moreover, the “EC50 on HL-60 (cytotoxicity)” value in assay [2] was found to be 5.7 pM. Further, the “CD25 Induction EC50” value in assay [3] was found to be 9 pM. Also, in [3], the “CD69 Induction EC50” value was 5 pM. In assay [3], the “T cell Proliferation in PBMC EC50” value turned out to be 6 pM. Besides, the Kd in [4] was 2800 pM; in assay [5] it was 6300 pM; in [6], 3600 pM; in [7] it was 2800 pM; in [8], 5400 pM; in assay [9], 6300 pM. The “KD ratio cynoCD33/huCD33” value in assay [10] is 37.3.

B2: CD33/CD3 2×2 T-cell engager 12 (bispecific antibody)
chain: DIQMTQSPSSLSASVGDRVTITCRSSTGAVTTSNYANWVQQKPGKAPKALIGGTNKRAPGVPSRFSGSLIGDKATLTISSLQPEDFATYYCALWYSNLWVFGQGTKVEIKGGSGGSQVQLVQSGAEVKKPGASVKVSCKASGYTFTSYDINWVRQAPGQGLEWMGWMNPNSGNTGFAQKFQGRVTMTRDTSTSTVYMELSSLRSEDTAVYYCARDRAVTDYYYGMDVWGQGTLVTVSSGGSGQSVLTQPPSASGTPGQRVTISCSGSRSNIGSNTVNWYQQLPGTAPKLLIYGNNQRPSGVPDRFSGSKSGTSASLAISGLQSEDEADYYCATWDDSLIGWVFGGGTKLTVLGGSGGSEVQLVESGGGLVQPGGSLRLSCAASGFTFSTYAMNWVRQAPGKGLEWVGRIRSKYNNYATYYADSVKDRFTISRDDSKNSLYLQMNSLKTEDTAVYYCARHGNFGNSYVSYFAYWGQGTLVTVSSAAAGSHHHHHH
notes: Non-covalent homodimer; also called tandom diabody 12
B2: the “IC50 … with human T cells” value in assay [1] was roughly 0.01 pM. Also, the “EC50 on HL-60 (cytotoxicity)” value in assay [2] stood at 1.3 pM. Further, in [11], the “EC50, cytotoxicity on HL-60” value is 1.3 pM and 137 pg/mL; the “EC50, cytotoxicity on KG-1” value is 1.2 pM and 126 pg/mL; the “EC50, cytotoxicity on U-937” value was 0.8 pM and 84 pg/mL; the “EC50, cytotoxicity, mean of HL-60, U-937, KG-1” value is 1.1 pM and 116 pg/mL. In [3], the “CD25 Induction EC50” value stood at 6 pM, the “CD69 Induction EC50” value is 3 pM and the “T cell Proliferation in PBMC EC50” value amounted to 2 pM. In addition, in [12], the “EC50 (mean), redirected lysis of BV-173 cells” value was determined as 1.4 pM; the “EC50 (mean), redirected lysis of CHO-CD33 cells” value turned out to be 11.8 pM; the “EC50 (mean), redirected lysis of HL-60 cells” value was determined as 1.4 pM; the “EC50 (mean), redirected lysis of K562 cells” value was 4.5 pM. In assay [12], the “EC50 (mean), redirected lysis of KASUMI-1 cells” value is 1.3 pM; the “EC50 (mean), redirected lysis of KG-1 cells” value is 1 pM; the “EC50 (mean), redirected lysis of RPMI-8226 cells” value came to 14 pM; the “EC50 (mean), redirected lysis of THP-1 cells” value came out at 1.9 pM. The “EC50 (mean), redirected lysis of U-937 cells” value in assay [12] was determined as 0.9 pM. This molecule also registered a Kd in assay [4] of 300 pM. The molecule further showed a Kd in assay [5] of 1500 pM. The molecule also gave a dissociation constant Kd in assay [6] of 900 pM. In [7], this molecule displayed a Kd of 300 pM. Besides, the Kd in assay [8] was 500 pM. Further, the Kd in assay [9] was 1500 pM.

B3: CD33/CD3 2×2 T-cell engager 16 (bispecific antibody)
chain: DIQMTQSPSSLSASVGDRVTITCRSSTGAVTTSNYANWVQQKPGKAPKALIGGTNKRAPGVPSRFSGSLIGDKATLTISSLQPEDFATYYCALWYSNLWVFGQGTKVEIKGGSGGSQVQLVQSGAEVKKPGASVKVSCKASGYTFTSYDINWVRQAPGQGLEWMGWMNPNSGNTGFAQKFQGRVTMTRDTSTSTVYMELSSLRSEDTAVYYCARDRANTDYSLGMDVWGQGTLVTVSSGGSGQSVLTQPPSASGTPGQRVTISCSGSRSNIGSNTVNWYQQLPGTAPKLLIYGNNQRPSGVPDRFSGSKSGTSASLAISGLQSEDEADYYCATWDDSLIGWVFGGGTKLTVLGGSGGSEVQLVESGGGLVQPGGSLRLSCAASGFTFSTYAMNWVRQAPGKGLEWVGRIRSKYNNYATYYADSVKDRFTISRDDSKNSLYLQMNSLKTEDTAVYYCARHGNFGNSYVSYFAYWGQGTLVTVSSAAAGSHHHHHH
notes: Non-covalent homodimer; also called AMV564; AMV 564
Turning to B3, in assay [1], the “IC50, lysis of KG-1 cells (separate experiment)” value came out at 5 pM and the “IC50 … with human T cells” value is roughly 0.5 pM. Further, the “EC50 on HL-60 (cytotoxicity)” value in assay [2] was found to be 1.5 pM. Also, in assay [11], the “EC50, cytotoxicity on HL-60” value was 1.5 pM and 158 pg/mL; the “EC50, cytotoxicity on KG-1” value was 1.8 pM and 189 pg/mL; the “EC50, cytotoxicity on U-937” value is 1.9 pM and 200 pg/mL; the “EC50, cytotoxicity, mean of HL-60, U-937, KG-1” value was 1.7 pM and 179 pg/mL. Also, in assay [3], the “CD25 Induction EC50” value came to 1 pM, the “CD69 Induction EC50” value amounted to 2 pM and the “T cell Proliferation in PBMC EC50” value is 3 pM. For the same molecule, in [12], the “EC50 (mean), redirected lysis of BV-173 cells” value is 3.2 pM; the “EC50 (mean), redirected lysis of CHO-CD33 cells” value came out at 24 pM; the “EC50 (mean), redirected lysis of HL-60 cells” value was 1.6 pM; the “EC50 (mean), redirected lysis of K562 cells” value amounted to 4.8 pM. For the same molecule, in assay [12], the “EC50 (mean), redirected lysis of KASUMI-1 cells” value was determined as 2.4 pM; the “EC50 (mean), redirected lysis of KG-1 cells” value worked out at 1.9 pM; the “EC50 (mean), redirected lysis of RPMI-8226 cells” value came to 2.8 pM; the “EC50 (mean), redirected lysis of THP-1 cells” value came to 6 pM. Further, the “EC50 (mean), redirected lysis of U-937 cells” value in assay [12] amounted to 1.3 pM. Also, in assay [13], the “EC50, calcein-release lysis of HL-60, 30 min incubation” value is 4.8 pM; the “EC50, calcein-release lysis of HL-60, 60 min incubation” value is 2.5 pM; the “EC50, calcein-release lysis of HL-60, 120 min incubation” value is 1.6 pM; the “EC50, calcein-release lysis of HL-60, 180 min incubation” value was 1.6 pM. Also, in assay [13], the “EC50, calcein-release lysis of HL-60, 240 min incubation” value was 1.5 pM and the “EC50, calcein-release lysis of HL-60, 300 min incubation” value was 1.6 pM. The molecule also yielded a Kd in assay [4] of 300 pM. For the same molecule, in assay [5], binding was put at a Kd of 5100 pM. This molecule yielded a Kd in [6] of 200 pM. In [7], the affinity, expressed as Kd, was 300 pM. The dissociation constant (Kd) in [8] was 300 pM. This molecule also gave a dissociation constant Kd in [9] of 2100 pM.
